From patent US20070077617

Experiments:
fusion protein PRMT = details: scale: relative
[1] = molecular target: motilin fusion protein PMT6D
[2] = molecular target: motilin fusion protein PMT7D
[3] = molecular target: human calcitonin precursor fusion protein PCT
[4] = molecular target: human adrenocorticotropic hormone(1-24) fusion protein PAC
Sequence of human adrenocorticotropic hormone(1-24) fusion protein PAC (chain, as listed by the source): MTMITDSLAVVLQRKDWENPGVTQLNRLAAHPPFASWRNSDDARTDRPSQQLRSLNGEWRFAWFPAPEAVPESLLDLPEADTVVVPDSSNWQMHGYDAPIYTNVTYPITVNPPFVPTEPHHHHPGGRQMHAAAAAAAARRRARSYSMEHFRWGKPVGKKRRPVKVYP

Sequence of fusion protein PRN (chain, as listed by the source): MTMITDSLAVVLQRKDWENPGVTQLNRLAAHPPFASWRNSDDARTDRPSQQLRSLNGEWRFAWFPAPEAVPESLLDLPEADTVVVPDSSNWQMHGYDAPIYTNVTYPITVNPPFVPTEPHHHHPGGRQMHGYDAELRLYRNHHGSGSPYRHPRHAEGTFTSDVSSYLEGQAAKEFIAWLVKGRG
Sequence of fusion protein PRS (chain, as listed by the source): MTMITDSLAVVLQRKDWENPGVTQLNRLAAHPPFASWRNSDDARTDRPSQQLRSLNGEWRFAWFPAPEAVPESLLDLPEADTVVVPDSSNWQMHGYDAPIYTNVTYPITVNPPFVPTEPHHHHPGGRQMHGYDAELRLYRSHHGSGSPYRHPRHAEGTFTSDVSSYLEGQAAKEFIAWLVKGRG
Sequence of fusion protein PRM (chain, as listed by the source): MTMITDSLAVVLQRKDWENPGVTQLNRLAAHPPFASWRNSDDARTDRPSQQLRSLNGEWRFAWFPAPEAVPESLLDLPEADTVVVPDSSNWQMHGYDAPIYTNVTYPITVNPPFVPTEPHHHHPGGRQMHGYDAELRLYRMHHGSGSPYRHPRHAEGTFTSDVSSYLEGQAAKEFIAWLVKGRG
Sequence of fusion protein PRD (chain, as listed by the source): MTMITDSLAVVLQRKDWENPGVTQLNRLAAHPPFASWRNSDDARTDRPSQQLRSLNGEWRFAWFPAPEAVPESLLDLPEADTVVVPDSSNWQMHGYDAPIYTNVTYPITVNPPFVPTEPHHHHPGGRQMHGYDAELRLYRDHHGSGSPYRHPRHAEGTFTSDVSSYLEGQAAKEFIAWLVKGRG
Sequence of fusion protein PRK (chain, as listed by the source): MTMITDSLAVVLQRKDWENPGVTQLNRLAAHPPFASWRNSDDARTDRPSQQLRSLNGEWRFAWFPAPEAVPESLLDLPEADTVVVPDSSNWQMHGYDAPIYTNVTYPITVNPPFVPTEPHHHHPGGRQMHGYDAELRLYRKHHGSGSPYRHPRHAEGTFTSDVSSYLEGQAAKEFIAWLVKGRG
Sequence of fusion protein PRE (chain, as listed by the source): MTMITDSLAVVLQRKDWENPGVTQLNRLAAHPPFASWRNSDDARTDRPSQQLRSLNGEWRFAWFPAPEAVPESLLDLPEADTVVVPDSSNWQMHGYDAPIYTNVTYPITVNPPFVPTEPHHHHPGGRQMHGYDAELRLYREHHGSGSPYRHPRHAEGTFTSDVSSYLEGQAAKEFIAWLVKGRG
Sequence of fusion protein PRL (chain, as listed by the source): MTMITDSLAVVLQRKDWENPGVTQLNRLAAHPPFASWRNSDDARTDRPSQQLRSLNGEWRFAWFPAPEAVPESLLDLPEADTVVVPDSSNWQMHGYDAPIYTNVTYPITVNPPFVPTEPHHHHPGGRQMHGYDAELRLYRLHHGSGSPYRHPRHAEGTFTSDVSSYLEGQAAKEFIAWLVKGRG
Sequence of fusion protein PRT (chain, as listed by the source): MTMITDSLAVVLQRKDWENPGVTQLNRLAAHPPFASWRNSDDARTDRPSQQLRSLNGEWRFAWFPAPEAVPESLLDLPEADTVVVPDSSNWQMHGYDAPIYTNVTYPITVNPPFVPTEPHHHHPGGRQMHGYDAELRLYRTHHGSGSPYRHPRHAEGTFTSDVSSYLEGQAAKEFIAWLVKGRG
Sequence of fusion protein PRG (chain, as listed by the source): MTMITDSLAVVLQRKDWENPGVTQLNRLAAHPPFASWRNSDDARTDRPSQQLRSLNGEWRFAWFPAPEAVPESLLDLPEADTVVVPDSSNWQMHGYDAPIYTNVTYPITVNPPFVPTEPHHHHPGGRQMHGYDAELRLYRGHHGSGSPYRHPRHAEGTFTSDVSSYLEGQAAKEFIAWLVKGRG
Sequence of fusion protein PRF (chain, as listed by the source): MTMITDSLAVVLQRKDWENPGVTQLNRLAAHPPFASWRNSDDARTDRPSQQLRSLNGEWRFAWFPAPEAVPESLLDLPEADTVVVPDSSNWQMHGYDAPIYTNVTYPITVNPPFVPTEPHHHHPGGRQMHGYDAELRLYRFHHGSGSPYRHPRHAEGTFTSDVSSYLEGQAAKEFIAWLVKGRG
Sequence of fusion protein PRR (chain, as listed by the source): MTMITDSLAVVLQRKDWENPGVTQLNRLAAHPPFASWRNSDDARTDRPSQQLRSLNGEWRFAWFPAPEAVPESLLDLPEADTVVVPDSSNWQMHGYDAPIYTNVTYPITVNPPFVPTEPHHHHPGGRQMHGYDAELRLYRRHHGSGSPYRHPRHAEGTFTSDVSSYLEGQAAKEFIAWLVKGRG
Sequence of fusion protein PRI (chain, as listed by the source): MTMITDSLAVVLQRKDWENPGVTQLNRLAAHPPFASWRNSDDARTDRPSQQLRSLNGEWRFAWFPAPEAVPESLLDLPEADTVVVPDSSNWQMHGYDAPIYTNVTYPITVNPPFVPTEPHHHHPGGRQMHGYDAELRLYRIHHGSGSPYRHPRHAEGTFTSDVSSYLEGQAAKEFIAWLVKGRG
Sequence of motilin fusion protein PMT6D (chain, as listed by the source): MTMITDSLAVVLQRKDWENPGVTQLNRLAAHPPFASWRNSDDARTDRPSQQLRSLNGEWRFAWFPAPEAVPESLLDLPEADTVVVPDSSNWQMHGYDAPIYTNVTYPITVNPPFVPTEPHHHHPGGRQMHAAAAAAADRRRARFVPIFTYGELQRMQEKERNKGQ
Sequence of fusion protein PRW (chain, as listed by the source): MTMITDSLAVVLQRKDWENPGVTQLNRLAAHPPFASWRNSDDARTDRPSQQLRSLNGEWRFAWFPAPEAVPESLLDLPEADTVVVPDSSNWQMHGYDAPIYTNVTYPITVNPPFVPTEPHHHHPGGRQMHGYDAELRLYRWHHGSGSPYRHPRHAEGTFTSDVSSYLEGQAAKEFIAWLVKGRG
Sequence of fusion protein PRQ (chain, as listed by the source): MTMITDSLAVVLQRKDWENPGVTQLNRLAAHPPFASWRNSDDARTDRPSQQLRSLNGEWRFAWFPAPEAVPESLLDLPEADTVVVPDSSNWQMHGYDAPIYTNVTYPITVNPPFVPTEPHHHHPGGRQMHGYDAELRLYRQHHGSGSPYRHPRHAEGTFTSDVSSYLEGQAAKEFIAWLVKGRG
Sequence of fusion protein PRA (chain, as listed by the source): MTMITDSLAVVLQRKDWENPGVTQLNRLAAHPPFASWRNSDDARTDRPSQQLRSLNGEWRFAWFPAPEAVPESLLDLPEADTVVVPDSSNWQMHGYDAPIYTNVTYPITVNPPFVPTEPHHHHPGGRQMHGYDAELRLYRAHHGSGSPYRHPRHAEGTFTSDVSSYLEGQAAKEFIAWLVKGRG
Sequence of fusion protein PMT (chain, as listed by the source): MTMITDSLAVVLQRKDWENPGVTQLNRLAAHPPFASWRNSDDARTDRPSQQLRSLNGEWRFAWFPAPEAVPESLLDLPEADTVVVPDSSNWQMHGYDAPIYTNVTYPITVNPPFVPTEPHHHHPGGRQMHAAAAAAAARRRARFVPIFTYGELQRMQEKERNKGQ
Sequence of fusion protein PRY (chain, as listed by the source): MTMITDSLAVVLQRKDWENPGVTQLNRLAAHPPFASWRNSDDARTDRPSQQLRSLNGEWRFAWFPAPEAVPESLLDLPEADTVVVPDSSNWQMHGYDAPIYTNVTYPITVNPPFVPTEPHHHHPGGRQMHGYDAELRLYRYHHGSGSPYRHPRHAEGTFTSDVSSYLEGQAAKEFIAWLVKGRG
Sequence of fusion protein PRC (chain, as listed by the source): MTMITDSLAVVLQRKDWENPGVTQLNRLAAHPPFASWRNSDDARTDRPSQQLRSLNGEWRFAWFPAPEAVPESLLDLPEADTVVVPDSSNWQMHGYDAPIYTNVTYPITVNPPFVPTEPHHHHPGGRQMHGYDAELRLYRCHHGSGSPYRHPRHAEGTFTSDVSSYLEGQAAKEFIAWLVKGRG
Sequence of fusion protein PRH (chain, as listed by the source): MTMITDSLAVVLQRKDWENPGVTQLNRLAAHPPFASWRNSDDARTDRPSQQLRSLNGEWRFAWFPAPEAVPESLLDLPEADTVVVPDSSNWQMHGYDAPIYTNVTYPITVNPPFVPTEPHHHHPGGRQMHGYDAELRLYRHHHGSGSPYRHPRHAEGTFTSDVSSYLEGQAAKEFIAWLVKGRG
Sequence of motilin fusion protein PMT7D (chain, as listed by the source): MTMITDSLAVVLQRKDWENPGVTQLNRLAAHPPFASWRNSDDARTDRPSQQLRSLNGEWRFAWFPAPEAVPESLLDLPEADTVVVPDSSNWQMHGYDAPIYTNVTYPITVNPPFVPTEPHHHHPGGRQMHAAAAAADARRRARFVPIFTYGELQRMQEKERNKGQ
Sequence of fusion protein PRMT (chain, as listed by the source): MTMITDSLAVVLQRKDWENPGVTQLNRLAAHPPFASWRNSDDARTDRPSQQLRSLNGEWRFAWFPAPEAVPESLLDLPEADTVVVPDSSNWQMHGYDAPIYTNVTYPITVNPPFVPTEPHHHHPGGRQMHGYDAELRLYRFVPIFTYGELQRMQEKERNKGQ
Sequence of human calcitonin precursor fusion protein PCT (chain, as listed by the source): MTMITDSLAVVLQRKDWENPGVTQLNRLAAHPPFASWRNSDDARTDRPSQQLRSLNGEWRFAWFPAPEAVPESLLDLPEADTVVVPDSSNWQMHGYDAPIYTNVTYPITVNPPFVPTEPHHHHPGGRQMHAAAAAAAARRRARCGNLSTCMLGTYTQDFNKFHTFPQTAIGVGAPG

Row | Protein | relative cleavage efficiency (fusion protein PRA) [%] | relative cleavage efficiency (fusion protein PRC) [%] | relative cleavage efficiency (fusion protein PRD) | relative cleavage efficiency (fusion protein PRE) | relative cleavage efficiency (fusion protein PRF) [%] | relative cleavage efficiency (fusion protein PRG) | relative cleavage efficiency (fusion protein PRH) | relative cleavage efficiency (fusion protein PRI) [%] | relative cleavage efficiency (fusion protein PRK) [%] | relative cleavage efficiency (fusion protein PRL) | relative cleavage efficiency (fusion protein PRM) [%] | relative cleavage efficiency (fusion protein PRN) [%] | relative cleavage efficiency (fusion protein PRP) | relative cleavage efficiency (fusion protein PRQ) | relative cleavage efficiency (fusion protein PRR) [%] | relative cleavage efficiency (fusion protein PRS) [%] | relative cleavage efficiency (fusion protein PRT) [%] | relative cleavage efficiency (fusion protein PRW) | relative cleavage efficiency (fusion protein PRY) [%] | other results
1 | OmpT protease variant OmpT D97M (protein) STETLSFTPDNINADISLGTLSGKTKERVYLAEEGGRKVSQLDWKFNNAAIIKGAINWDLMPQISIGAAGWTTLGSRGGNMVDQDWMDSSNPGTWTMESRHPDTQLNYANEFDLNIKGWLLNEPNYRLGLMAGYQESRYSFTARGGSYIYSSEEGFRDDIGSFPNGERAIGYKQRFKMPYIGLTGSYRYEDFELGGTFKYSGWVESSDNDEHYDPGKRITYRSKVKDQNYYSVAVNAGYYVTPNAKVYVEGAWNRVTNKKGNTSLYDHNNNTSDYSKNGAGIENYNFITTAGLKYTF | 6 | 6.5 | less than 3% | less than 3% | 7.7 | less than 3% | less than 3% | < 3 | < 3 | less than 3% | < 3 | < 3 | less than 3% | less than 3% | < 3 | 7.1 | < 3 | less than 3% | 6.2 | amount of motilin released, against PRMT (fusion protein PMT): the amount of motilin released from PMT was 3.5 times higher than from PRMT; by-product AR-motilin (motilin = 100) (fusion protein PMT): By-products were yielded at 2.8 and 33% with PMT; by-product RRAR-motilin (motilin = 100) (fusion protein PMT): By-products were yielded at 2.8 and 33% with PMT; digestion (SDS-PAGE), co-expressed inclusion bodies (fusion protein PMT): reaction of 1440 minutes, i.e. 24 hours, caused virtually complete digestion of the fusion protein PMT; motilin released (fusion protein PMT): Motilin was released at 280, 250 and 370 µg/mL from the motilin fusion proteins PMT, PMT6D and PMT7D, respectively; relative cleavage efficiency: Motilin (Arg^143-Phe^144) (fusion protein PMT; scale: relative): 78; relative cleavage efficiency: RRAR-motilin (Arg^139-Arg^140) (fusion protein PMT; scale: relative): 24; relative cleavage efficiency: Motilin (Arg^140-Phe^141) (fusion protein PRMT): 22; by-product AR-motilin (motilin = 100) [1]: at 3.5 and 16% with PMT6D; by-product RRAR-motilin (motilin = 100) [1]: at 3.5 and 16% with PMT6D; motilin released [1]: Motilin was released at 280, 250 and 370 µg/mL from the motilin fusion proteins PMT, PMT6D and PMT7D, respectively; by-product RRAR-motilin [2]: no peak for RRAR-motilin was detected with PMT7D; motilin released [2]: Motilin was released at 280, 250 and 370 µg/mL from the motilin fusion proteins PMT, PMT6D and PMT7D, respectively
2 | OmpT protease variant OmpT D97H (protein) STETLSFTPDNINADISLGTLSGKTKERVYLAEEGGRKVSQLDWKFNNAAIIKGAINWDLMPQISIGAAGWTTLGSRGGNMVDQDWMDSSNPGTWTHESRHPDTQLNYANEFDLNIKGWLLNEPNYRLGLMAGYQESRYSFTARGGSYIYSSEEGFRDDIGSFPNGERAIGYKQRFKMPYIGLTGSYRYEDFELGGTFKYSGWVESSDNDEHYDPGKRITYRSKVKDQNYYSVAVNAGYYVTPNAKVYVEGAWNRVTNKKGNTSLYDHNNNTSDYSKNGAGIENYNFITTAGLKYTF | 8.4 | 11 | less than 3% | less than 3% | 4.1 | less than 3% | less than 3% | 3.1 | 4.5 | less than 3% | 4.6 | 3.5 | less than 3% | less than 3% | 4.6 | 8.7 | 3 | less than 3% | < 3 | cleavage (HPLC, mass analysis) [3]: PCT was cleaved at Arg^139-Arg^140. Arg^141-Ala^142 and Arg^143-Cys^144 by D97H, releasing RRAR-CT, AR-CT and human calcitonin precursor
3 | OmpT protease variant OmpT D97L (protein) STETLSFTPDNINADISLGTLSGKTKERVYLAEEGGRKVSQLDWKFNNAAIIKGAINWDLMPQISIGAAGWTTLGSRGGNMVDQDWMDSSNPGTWTLESRHPDTQLNYANEFDLNIKGWLLNEPNYRLGLMAGYQESRYSFTARGGSYIYSSEEGFRDDIGSFPNGERAIGYKQRFKMPYIGLTGSYRYEDFELGGTFKYSGWVESSDNDEHYDPGKRITYRSKVKDQNYYSVAVNAGYYVTPNAKVYVEGAWNRVTNKKGNTSLYDHNNNTSDYSKNGAGIENYNFITTAGLKYTF | 7.1 | 3.9 | less than 3% | less than 3% | 4.7 | less than 3% | less than 3% | < 3 | < 3 | less than 3% | < 3 | < 3 | less than 3% | less than 3% | < 3 | 9.1 | < 3 | less than 3% | 3.2 | by-products [4]: No by-products were released by cleavage at other sites; release of human adrenocorticotropic hormone(1-24), against wild-type OmpT protease [4]: released human adrenocorticotropic hormone(1-24) at 2.9 times compared to wild-type OmpT protease
